Data as given in patent US9476056B2, “Recombinant vector for producing and secreting peptide or protein of interest by propionibacteria and applications thereof” (INSTITUT NATIONAL DE LA SANTE ET DE LA RECHERCHE MEDICALE …, priority 2010, dated 2016).

System: HT29 human colon cancer cells
Test: Cytotoxicity (viability) test on HT29 cells, methylene blue staining
Assay type: cell-based
Details: TRAIL alone, sublethal doses 25, 50 and 100 ng/ml, 24 hours
Experimental: FIG. 1: Graphs illustrating the synergy observed in vitro between TRAIL and P. freudenreichii metabolites. HT29 colon cancer cells were treated with sublethal doses of TRAIL (25 ng/ml, 50 ng/ml and 100 ng/ml). Various doses of SCFA (propionate/acetate SCFA, FIG. 1A) or of P. freudenreichii supernatant (FIG. 1B) were used in co-treatment. Viability of the HT29 cells was determined after 24 hours of treatment. […] More precisely, the viability illustrated in FIG. 1 was determined using the following cytotoxicity test. HT29 human colon cancer cells (ATCC, Biovalley) were cultured in 96-well plates (30,000 cells/well) for 24 hours. […] At the end of treatment (24 hours), the medium was discarded and the adherent cells were washed three times with 1× PBS (100 μl/well) and fixed in 99% ethanol (100 μl/well) for 30 minutes. After discarding the ethanol, the fixed cells were air dried and then stained for 30 minutes with methylene blue (diluted in 1× borate buffer). After three washings in water and drying (roughly 30 minutes), 100 μl of hydrochloric acid (0.1 N) was added to the wells. The plates were then analyzed by spectrophotometer at a wavelength of 620 nm (iEMS Reader MF; Lab-systems, Helsinki, Finland).

B1: TRAIL: cytokine TNF-related apoptosis-inducing ligand; SuperKillerTRAIL™ (Alexis Biochemicals) used in the HT29 test (protein)
chain: TSEETISTVQEKQQNISPLVRERGPQRVAAHITGTRGRSNTLSSPNSKNEKALGRKINSWESSRSGHSFLSNLHLRNGELVIHEKGFYYIYSQTYFRFQEEIKENTKNDKQMVQYIYKYTSYPDPILLMKSARNSCWSKDAEYGLYSIYQGGIFELKENDRIFVSVTNEHLIDMDHEASFFGAFLVG
cell death (viability of HT29 cells): do not significantly induce cell death
